Results published in patent US20130079286A1 (Pieris, published 2013).

Tests used:
[1] = biological target: T1, Trx-Aβ28 fusion protein (Escherichia coli (strain K12), UniProt P0AA25 1-76 = thioredoxin, Biotin-labelled through an NHS ester (2:1) in the capture and competitive ELISAs; unlabeled in the direct ELISA and as competitor.); assay: competitive ELISA: mutein captured, 5 nM biotinylated Trx-Aβ28 as tracer, unlabeled Trx-Aβ28 varied as competitor
T1 construct: the entry may be a nucleic acid; also called TrxAbeta28H6

[2] = biological target: T2, MBP-Aβ40 fusion protein; assay: SPR (Biacore), MBP-Aβ40 amine-coupled; same experiment as the 1st table, row 20, column 2, printed with more digits
T2 construct: the entry may be a nucleic acid; Biotin-labelled in the capture ELISA, unlabeled in the direct ELISA and SPR; also called MBP-Abeta40
Procedure: FIG. 8 depicts the kinetic real time analysis of Lcn2 muteins S1-A4 (A) and US7 (B) measured on a Biacore instrument at a flow rate of 10 μl/min. The MBP-Aβ40 fusion protein was coupled via amine chemistry on a CMD 200I chip (ΔRU=1455) and each of the purified Lcn2 muteins was applied in a series at different concentrations. The measured signal is shown as a grey line whereas the curve fit is depicted as a black line in each case.
Real time analysis of Lcn2 muteins was performed on a Biacore X system (Biacore, Uppsala, Sweden) using PBS/T (PBS containing 0.005% (v/v) Tween 20) as running buffer. A 50 μg/mL solution of MBP-Aβ40 from Example 2 in 10 mM Na-acetate, pH 4.5 was immobilized onto a […] chip (Xantec, Düsseldorf, Germany) using standard amine coupling chemistry, resulting in a ligand density of 1455 resonance units (RU). […] The sensorgrams were corrected by subtraction of the corresponding signals measured for the control channel, which had been activated and blocked with ethanolamine. […] During this step the kₒₙ and koff rates were fitted globally, while the maximum response difference Rₘₐₓ was fitted locally for each curve.

[3] = biological target: T1, Trx-Aβ28 fusion protein; assay: capture ELISA: mutein captured, biotinylated Trx-Aβ28 titrated
Procedure: FIG. 5 depicts the binding activity of the Lcn2 muteins H1-G1, S1-A4, and US7 in capture ELISAs with different biotinylated Aβ targets. StrepMAB-Immo at 10 μg/ml was immobilized on microtitre plates and employed for capturing of 1 JAM Lcn2 muteins via the Strep-tag H. In figures A to C the binding of the Lcn2 muteins S1-A4 and US7 to (A) biotinylated Aβ40, (B) biotinylated Trx-Aβ28, and (C) biotinylated MBP-Aβ40 are shown. Binding was detected by incubation with ExtrAvidin/AP and a subsequent chromogenic reaction with pNPP. Ovalbumin (Ova), thioredoxin (Trx), and maltose binding protein (MBP) were used as negative controls. Additionally, binding of wild-type (wt) lipocalin was tested. The data were fitted to a monovalent binding model.
For selective capturing of the Lcn2 muteins carrying the C-terminal Strep-tag II (Schmidt and Skerra (2007) Nat. Protoc. 2, 1528-1535), a 96-well MaxiSorp polystyrene microtitre plate (Nunc, Langenselbold, Germany) was coated with 10 μg/mL StrepMAB-Immo (IBA, Göttingen, Germany) in PBS over night at 4° C. and blocked with 3% (w/v) BSA in PBS/T at room temperature for 1 h. After 3 washing steps with PBS/T, 50 μL of a 1 μM solution of the purified Lcn2 muteins from Example 7 were applied to all wells for 1 h. After washing, 50 μL of a dilution series of the biotinylated targets Aβ40, MBP-Aβ40 or Trx-Aβ28 from Example 2 were added and incubated for 1 h whereby the biotinylated forms of Ova, MBP and Trx from Example 2 served as negative control proteins. The wells were washed again and bound conjugate was detected with 50 μL of ExtrAvidin/AP conjugate (Sigma-Aldrich, Steinheim, Germany) diluted 1:5000 in PBS/T for 1 h, followed by signal development in the presence of 100 μL 0.5 mg/mL p-nitrophenyl phosphate (AppliChem, Darmstadt, Germany) in 100 mM Tris/HCl, pH 8.8, 100 mM NaCl, 5 mM MgCl₂.

[4] = biological target: T3, Aβ40 hexamer VFFAED on SPOT membrane; assay: SPOT membrane, hexameric and decameric peptides
T3 construct: Called a minimal motif found with the hexameric and decameric peptides
T3 peptide: Ac-VFFAED-{SPOT membrane}
Procedure: (§1) The SPOT membrane (Amino-PEG500-UC540 sheet, 100×150 mm, Intavis, Köln, Germany) for mapping the Aβ epitope of the Lcn2 muteins S1-A4 and US7 was prepared in an automated procedure as described by Frank ((2002) J. Immunol. Methods 262, 13-26) using a MultiPep RS instrument (Intavis, Köln, Germany) and activated amino acids from the same vendor. The Aβ40 amino acid sequence (SEQ ID NO: 29) was synthesized on the membrane in successive hexamers, decamers, and pentadecamers, each with a dislocation of 1 amino acid, thus covering the entire sequence. The C-termini of these peptides became covalently attached to the membrane whereas their N-termini were acetylated. Immobilized Strep-tag II served as a positive control for the detection method.
(§2) Prior to use, the membrane was washed once with ethanol, 3 times with PBS (4 mM KH₂PO₄, 16 mM Na₂HPO₄, 115 mM NaCl, pH 7.4), and blocked with 3% (w/v) BSA in PBS/T (PBS containing 0.1% (v/v) Tween 20) for 1 h. […]
(§3) Comparison of the membranes incubated with S1-A4 and wild-type Lcn2, respectively, yielded prominent spots that only occurred upon incubation of the membrane with S1-A4 and not with wild-type Lcn2. […] With the shorter hexameric and decameric peptide sequences binding of S1-A4 to the minimal motives VFFAED and FFAEDV was detected.

[5] = biological target: T4, Aβ40 hexamer FFAEDV on SPOT membrane; assay: SPOT membrane, hexameric and decameric peptides
T4 construct: Called a minimal motif found with the hexameric and decameric peptides
T4 peptide: Ac-FFAEDV-{SPOT membrane}
Procedure: as §1, §2, §3

B1: Lcn2 mutein S1-A4 (designed binder)
chain: QDSTSDLIPAPPLSKVPLQQNFQDNQFHGKWYVVGVAGNYTLREDKDPLKMYATIYELKEDKSYNVTSVGFRLKKCNYKIRTFVPGSQPGEFTLGIIKSQPGMTSYLVRVVSTNYNQHAMVFFKTVGQNREMFNITLYGRTKELTSELKENFIRFSKSLGLPENHIVFPVPIDQCIDG
B1 showed a Kd [1] of 21.7 nM, a Kd [2] of 1.74 nM and a Kd [3] of 1.9 nM. B1: binds [4]; binds [5].
